This note sets out measurements from US20200291066A1.

Where two headings read alike, the source gives them in different places. Ends that are not written are not given here. Some results are limits rather than exact numbers.

In assay [1] the target is T1, human IL-2Rβ (CD122 protein, Fc Tag) (27-239) (human), P14784.
T1 chain: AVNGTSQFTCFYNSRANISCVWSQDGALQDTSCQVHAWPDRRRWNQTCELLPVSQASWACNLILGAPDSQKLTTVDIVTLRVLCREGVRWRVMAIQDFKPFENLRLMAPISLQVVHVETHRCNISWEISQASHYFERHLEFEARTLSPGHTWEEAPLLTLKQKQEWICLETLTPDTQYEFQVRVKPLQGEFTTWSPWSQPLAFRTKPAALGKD
Nature of the assay: pH-dependent ELISA (Examples 9-12). A general note: ELISA stands for enzyme-linked immunosorbent assay.

The target in assay [2] is T1, human IL-2Rβ (CD122 protein, Fc Tag) …. In words: pH-dependent ELISA (Examples 9-12).

B1: SEQ ID NO 489 (peptide)
peptide: PGVQDCXIAHXGELCEFVWN
modifications: not fully specified; X: residue not identified in the source; ends and bridges not checked
Take B1: the decrease in binding at pH 7.5 compared to pH 6.0 in assay [1] was more than 15%; in assay [2], more than 50%.
